Measured values published in patent publication US6284871.

Assays:
[1] = biological target: purified human Factor IXa (human) (UniProt P00740)
[2] = biological target: non-activated Factor IX (Homo sapiens (Human)) (UniProt P00740); assay: equilibrium binding in solution (method of Friguet): 30 nM Factor IX with varying peptide, non-bound Factor IX measured on immobilized peptide
[3] = biological target: non-activated Factor IX (Homo sapiens (Human)) (UniProt P00740)
[4] = biological target: purified human Factor IXa (human) (UniProt P00740); remark: listed apart in the source
[5] = biological target: purified human Factor IXa (human) (UniProt P00740); assay: equilibrium binding in solution (method of Friguet): 30 nM Factor IXa with varying peptide, non-bound Factor IXa measured on immobilized peptide

Molecule | Anticoagulant activity in the APTT test (prolongation of the clotting time in seconds) [1] | Kd [2] | half-maximal inhibition in the APTT test [3] | half-maximal inhibition in the APTT test [4] | Kd [5]
complete Factor VIII light chain (residues 1649-2332) (from UniProt P00451) | 8.6 s | – | – | – | –
KNFVKPNETKTYFWK [compound … (SEQ ID NO: 3), synthetic peptide of Factor VIII A3-domain residues 1804-1818] | – | 230 µM | 0.3 mM | 0.3 mM | 200 µM
